Laboratory results taken from article PMC4028238.

test system: Influenza A virus hemagglutinin (whole virus as assayed) (Influenza A virus H3N2 A/Texas/1977 (A/Texas/1/77)); experiment: competition ELISA; settings: 5' PEG200, PBS, room temperature, […] (0.5-500 nM) […] (5 nM)

Question: How did the relative binding affinity (IC50 ratio vs BV02) (IC50(BV02)/IC50) turn out when “ATTAACCCTCACTAAAGGGCTGAGTCTCAAAACCGCAATACACTGGTTGTATGGTCGAATAAGTTAA [BV32]” was run?
Answer: Its relative binding affinity (IC50 ratio vs BV02) (IC50(BV02)/IC50) is 1.33.

same assay, conditions: * marks (phosphorothioate) after nt 1,2,3, 3' inverted dT, PBS, room temperature, […] (0.5-500 nM) […] (5 nM)

Question: Which relative binding affinity (IC50 ratio vs BV02) (IC50(BV02)/IC50) does the source give for “ATTAACCCTCACTAAAGGGCTGAGTCTCAAAACCGCAATACACTGGTTGTATGGTCGAATAAGTTAA [BV29]” here?
Answer: The relative binding affinity (IC50 ratio vs BV02) (IC50(BV02)/IC50) was 6.7.

same assay, conditions: * marks (phosphorothioate) after nt 1,2,3 and the last 3 linkages, PBS, room temperature, […] (0.5-500 nM) […] (5 nM)

Question: “ATTAACCCTCACTAAAGGGCTGAGTCTCAAAACCGCAATACACTGGTTGTATGGTCGAATAAGTTAA [BV28]” was tested. Which relative binding affinity (IC50 ratio vs BV02) (IC50(BV02)/IC50) did it give?
Answer: The relative binding affinity (IC50 ratio vs BV02) (IC50(BV02)/IC50) was 1.36.

same assay, conditions: * marks (phosphorothioate): A*T*T*AACC*CTCACTAAAGGG*CTGAGTC*TCAAAACCG*CAATACACTG*GTTGTATG*GTCGAATAAGT*T*A*A, PBS, room temperature, […] (0.5-500 nM) […] (5 nM)

Question: For “ATTAACCCTCACTAAAGGGCTGAGTCTCAAAACCGCAATACACTGGTTGTATGGTCGAATAAGTTAA [BV31]”, which relative binding affinity (IC50 ratio vs BV02) (IC50(BV02)/IC50) is on record?
Answer: The relative binding affinity (IC50 ratio vs BV02) (IC50(BV02)/IC50) was 7.51.

same assay, conditions: PBS, room temperature, […] (0.5-500 nM) […] (5 nM)

Question: With “TCTCAGCCCCCGCTGAGTCAAAGCGCACCCCCCCCCCCCCCCCCCCTGCGCTTAA [BV37f]” as the sequence, how does the relative binding affinity (IC50 ratio vs BV02) (IC50(BV02)/IC50) read?
Answer: Its relative binding affinity (IC50 ratio vs BV02) (IC50(BV02)/IC50) is 0.495.

Question: With “AACGCTCACTCCCCCACCCCCCCACCCCCCCACCCCCCCACCCCCAGTGAGCGTT [BV35m]” as the sequence, how does the relative binding affinity (IC50 ratio vs BV02) (IC50(BV02)/IC50) read?
Answer: Its relative binding affinity (IC50 ratio vs BV02) (IC50(BV02)/IC50) is 6.54.

Question: Which relative binding affinity (IC50 ratio vs BV02) (IC50(BV02)/IC50) does the source give for “TCATTCTCAGTAAAGGGCTGAGAATTCAAACCGCAATACACTGGTAAAAAGTGCGGTTAAG [BV27p]” here?
Answer: The relative binding affinity (IC50 ratio vs BV02) (IC50(BV02)/IC50) was 0.133.

Question: Which relative binding affinity (IC50 ratio vs BV02) (IC50(BV02)/IC50) does the source give for “CTCACTAAAGCGCTGAGTCCCCCCCCCCCCCCCCCCCACTCAGCGCTTTAGTGAG [BV35]” here?
Answer: Its relative binding affinity (IC50 ratio vs BV02) (IC50(BV02)/IC50) is 1.01.

Question: Which relative binding affinity (IC50 ratio vs BV02) (IC50(BV02)/IC50) does the source give for “AGATAAATGTCCGGGTTCGCTTCACTGATCAAACATAGACAGGTATAATTACTGCCTGAAGAAAATCC [S2]” here?
Answer: Its relative binding affinity (IC50 ratio vs BV02) (IC50(BV02)/IC50) is 1.

Question: How did the relative binding affinity (IC50 ratio vs BV02) (IC50(BV02)/IC50) turn out when “AACGCTCACTCCCAAGAAGAAGAACCCCCCCCCCCCCCCCAGTGAGCGTT [BV43b]” was run?
Answer: The relative binding affinity (IC50 ratio vs BV02) (IC50(BV02)/IC50) was 8.01.

Question: Which relative binding affinity (IC50 ratio vs BV02) (IC50(BV02)/IC50) does the source give for “CTCACTAAAGGGCTGAGTCAAACCGCAATACACTGGTTGTATGGTCGGTTAAGTT [BV27c]” here?
Answer: The relative binding affinity (IC50 ratio vs BV02) (IC50(BV02)/IC50) was 0.771.

Question: With “AACGCTCACTCCCCCCCCCCCCCCCAAGAACCCCCCCCCCCCCCCAGTGAGCGTT [BV35s]” as the sequence, how does the relative binding affinity (IC50 ratio vs BV02) (IC50(BV02)/IC50) read?
Answer: The relative binding affinity (IC50 ratio vs BV02) (IC50(BV02)/IC50) was 7.45.

Question: “AATTAACCCTCACTAAAGGGCTGAGTCTCAAAACCGCAATACACTGGTTGTACAACCAGTGTATTGCG [BV14]” was tested. Which relative binding affinity (IC50 ratio vs BV02) (IC50(BV02)/IC50) did it give?
Answer: Its relative binding affinity (IC50 ratio vs BV02) (IC50(BV02)/IC50) is 1.33.

Question: With “AATTAACCCTCACTAAAGGGCTGATGCGGAATAAGTTAAAACCGCAGGTATACACTGGTTGTATCGAA [BV02a]” as the sequence, how does the relative binding affinity (IC50 ratio vs BV02) (IC50(BV02)/IC50) read?
Answer: Its relative binding affinity (IC50 ratio vs BV02) (IC50(BV02)/IC50) is 0.946.

Question: “AACGCTCACTAACCCCCCCCCCACCCCCCCCCCACCCCCCCCCCAAGTGAGCGTT [BV45]” was tested. Which relative binding affinity (IC50 ratio vs BV02) (IC50(BV02)/IC50) did it give?
Answer: The relative binding affinity (IC50 ratio vs BV02) (IC50(BV02)/IC50) was 14.2.

Question: With “GGTAGTTATAGTATATGGAAGGGGCCCCCCCCCCCCCCCCGTGTCGTATGG [C7C]” as the sequence, how does the relative binding affinity (IC50 ratio vs BV02) (IC50(BV02)/IC50) read?
Answer: The relative binding affinity (IC50 ratio vs BV02) (IC50(BV02)/IC50) was 15.5.

Question: With “TCCTCAGTAAAATAGCGGGGCTGAGTCAAACCGCAATACACTGGTAAAAAGTGCGGTTAAG [BV27n]” as the sequence, how does the relative binding affinity (IC50 ratio vs BV02) (IC50(BV02)/IC50) read?
Answer: The relative binding affinity (IC50 ratio vs BV02) (IC50(BV02)/IC50) was 0.151.

Question: With “AATTAACCCTCACTAAAGGGCTGAGTCTCAAAACCGCAATACACTCAGCCCTTTAGTGAGGGTTAATT [BV19]” as the sequence, how does the relative binding affinity (IC50 ratio vs BV02) (IC50(BV02)/IC50) read?
Answer: Its relative binding affinity (IC50 ratio vs BV02) (IC50(BV02)/IC50) is 1.34.

Question: “AATTAACCCTGACTAAAGGGGTGAGTCTCAAAACCGCAATACACTCAGCCCTTTAGTGAGGGTTAATT [BV19i]” was tested. Which relative binding affinity (IC50 ratio vs BV02) (IC50(BV02)/IC50) did it give?
Answer: The relative binding affinity (IC50 ratio vs BV02) (IC50(BV02)/IC50) was 0.071.

Question: With “AAATAAGCCTGACTTAACGGGTGACTCTCAAAACCGCAATACACTCAGCCCTTTAGTGAGGGTTAATT [BV19k]” as the sequence, how does the relative binding affinity (IC50 ratio vs BV02) (IC50(BV02)/IC50) read?
Answer: The relative binding affinity (IC50 ratio vs BV02) (IC50(BV02)/IC50) was 0.932.

Question: For “GAAATAACCTCTGATAAAAAATTTCTCCATAGCGAAGTAAGTCCATAAGGAATGCCGATTCGGCTTGC [S1]”, which relative binding affinity (IC50 ratio vs BV02) (IC50(BV02)/IC50) is on record?
Answer: The relative binding affinity (IC50 ratio vs BV02) (IC50(BV02)/IC50) was 1.1.

Question: How did the relative binding affinity (IC50 ratio vs BV02) (IC50(BV02)/IC50) turn out when “CCCCCCCCCGCGCTGAGTCCCCCCCCCCCCCCCCCCCACTCAGCGCGCCCCCCCC [BV35b]” was run?
Answer: The relative binding affinity (IC50 ratio vs BV02) (IC50(BV02)/IC50) was 0.938.

Question: How did the relative binding affinity (IC50 ratio vs BV02) (IC50(BV02)/IC50) turn out when “AACGCTCACTCCCCCCCCACCCCCCCCACCCCCCCCACCCCCCCCAGTGAGCGTT [BV35n]” was run?
Answer: The relative binding affinity (IC50 ratio vs BV02) (IC50(BV02)/IC50) was 7.23.

Question: For “AACGCTCACTCCCCCCCCCCCCCCCCCCCAGTGAGCGTT [BV35g]”, which relative binding affinity (IC50 ratio vs BV02) (IC50(BV02)/IC50) is on record?
Answer: The relative binding affinity (IC50 ratio vs BV02) (IC50(BV02)/IC50) was 0.639.

Question: Which relative binding affinity (IC50 ratio vs BV02) (IC50(BV02)/IC50) does the source give for “GTTTTGAGACTCAGCCCGGGCTGAGTCTCAAAACCGCAATACACTGGTTGTACAACCAGTGTATTGCG [BV13]” here?
Answer: The relative binding affinity (IC50 ratio vs BV02) (IC50(BV02)/IC50) was 0.084.

Question: “GTCACTAAAGGGCTGAGTCAAACCGCCATACACTGGTTGTATGGCGGTTAAGTT [BV27j]” was tested. Which relative binding affinity (IC50 ratio vs BV02) (IC50(BV02)/IC50) did it give?
Answer: Its relative binding affinity (IC50 ratio vs BV02) (IC50(BV02)/IC50) is 0.089.

Question: With “CCCCCCCCCCCCCCCCCGCGCTGAGTCCCCCCCCCCCCCCCCCCCACTCAGCGCG [BV35c]” as the sequence, how does the relative binding affinity (IC50 ratio vs BV02) (IC50(BV02)/IC50) read?
Answer: The relative binding affinity (IC50 ratio vs BV02) (IC50(BV02)/IC50) was 1.16.

Question: “GGTAGTTATAGTATATGGAAGGGGGTGTCGTATGG [C7-35M]” was tested. Which relative binding affinity (IC50 ratio vs BV02) (IC50(BV02)/IC50) did it give?
Answer: The relative binding affinity (IC50 ratio vs BV02) (IC50(BV02)/IC50) was 0.549.

Question: For “AACGCTCACTAAACCCCCCCCCACCCCCCCCCACCCCCCCCCAAAAGTGAGCGTT [BV45a]”, which relative binding affinity (IC50 ratio vs BV02) (IC50(BV02)/IC50) is on record?
Answer: The relative binding affinity (IC50 ratio vs BV02) (IC50(BV02)/IC50) was 12.6.

Question: Which relative binding affinity (IC50 ratio vs BV02) (IC50(BV02)/IC50) does the source give for “AATTAACGCTCACTAAAGCCCCACCCACCCACCCACCCACCCACCCACCCCTTTAGTGAGCGTTAATT [BV36b]” here?
Answer: The relative binding affinity (IC50 ratio vs BV02) (IC50(BV02)/IC50) was 0.611.

Question: Which relative binding affinity (IC50 ratio vs BV02) (IC50(BV02)/IC50) does the source give for CTCCTCCTCCTCCTCCTCCTCCTCCTCCTC [BV24a] here?
Answer: Its relative binding affinity (IC50 ratio vs BV02) (IC50(BV02)/IC50) is 0.08.
